Results as given in the RNAGym collection of RNA variant scans (doi:10.1021/acssynbio.7b00057).

B1: Pistol ribozyme (parent)
chain: GGGUCGUUGUUCCAUAAUCGCGUGGAUAUGGCACGCAAGUUUCUACCGGGCACCGUAAAUGUCCGACUGGAGCCGUUCGGGCGGCUAUAAACAGACCUCAGGCCCGAAGCGUGGCGGCACCUGCCGCCGGUGGUAAAAAAGAUCGGAAGAGCACACGUCU

Variants of: B1
Assay: aptazyme ON/OFF ratio, guanine; higher = stronger switching; co-transcriptional cleavage with and without guanine
With U8G G9A U10G C12U C13U the “aptazyme ON/OFF ratio” value was 1.18.
With U7G U10G U11G C12U C13U the “aptazyme ON/OFF ratio” value was 1.36.
For U8G G9C U10C, the “aptazyme ON/OFF ratio” value was 1.08.
For U7C G9U U10C U11G C12U C13G, the “aptazyme ON/OFF ratio” value was 1.15.
With U8G G9U U10C U11G C12G C13A the “aptazyme ON/OFF ratio” value was 1.15.
In the case of U8A G9A U10C U11G C12G C13A, the “aptazyme ON/OFF ratio” value is reported as 1.28.
With U7G U8G G9C U10A U11A C12U C13A the “aptazyme ON/OFF ratio” value was 1.08.
For U7G U8C U11C C12U, the “aptazyme ON/OFF ratio” value was 1.57.
With U7A U8G G9A U11A C12U C13G the “aptazyme ON/OFF ratio” value was 1.28.
In the case of U7G U8G U10G U11A C13A, the “aptazyme ON/OFF ratio” value is reported as 1.21.
In the case of U7A U8G G9U U10C C13A, the “aptazyme ON/OFF ratio” value is reported as 1.33.
In the case of U8C U10C C12G C13A, the “aptazyme ON/OFF ratio” value is reported as 1.37.
With U7G U8C G9A U10G C12U the “aptazyme ON/OFF ratio” value was 1.35.
In the case of G9A U10A C12G C13A, the “aptazyme ON/OFF ratio” value is reported as 1.47.
With U7A G9A C12A C13A the “aptazyme ON/OFF ratio” value was 1.13.
With U7C U8A G9A U10C U11G C13G the “aptazyme ON/OFF ratio” value was 1.13.
For U7G U8G G9U U10A U11C C12A C13A, the “aptazyme ON/OFF ratio” value was 1.1.
For U7G U8A G9A U10C C12A, the “aptazyme ON/OFF ratio” value was 1.1.
With U10G U11A C12G C13A the “aptazyme ON/OFF ratio” value was 1.16.
In the case of U7C U8A G9C U11G C12G C13A, the “aptazyme ON/OFF ratio” value is reported as 1.1.
With U11C C12A C13G the “aptazyme ON/OFF ratio” value was 1.43.
In the case of U7A U8C G9U U10A C12G, the “aptazyme ON/OFF ratio” value is reported as 1.23.
In the case of U7G U8A G9A U11A C12U C13U, the “aptazyme ON/OFF ratio” value is reported as 1.06.
With U7A U8C G9A U11G C13G the “aptazyme ON/OFF ratio” value was 1.31.
In the case of U7G U8G G9A U10G C13G, the “aptazyme ON/OFF ratio” value is reported as 1.11.
With U7C U8G G9U U10C U11G C12A C13G the “aptazyme ON/OFF ratio” value was 1.13.
With U7G U8G G9U U10C U11C C12G the “aptazyme ON/OFF ratio” value was 1.46.
With U8A G9C U10G U11G C12G C13U the “aptazyme ON/OFF ratio” value was 1.31.
With U7A U8C G9A U10C U11A C12A C13A the “aptazyme ON/OFF ratio” value was 1.13.
For U7A U10A U11C, the “aptazyme ON/OFF ratio” value was 1.
With U7G U8C G9U U10A U11A C12A the “aptazyme ON/OFF ratio” value was 1.63.
With U7A G9A U10C C13U the “aptazyme ON/OFF ratio” value was 1.12.
With U8G G9U U11G C12U C13U the “aptazyme ON/OFF ratio” value was 1.16.
In the case of U8A U10A C12A C13A, the “aptazyme ON/OFF ratio” value is reported as 1.19.
For U7G U8G G9U U10C U11A, the “aptazyme ON/OFF ratio” value was 1.47.
With U7A U8G G9U U10G U11C C12A C13G the “aptazyme ON/OFF ratio” value was 1.13.
With U7A U8A G9A U10A U11C C13A the “aptazyme ON/OFF ratio” value was 1.05.
For U7A U8G U10C C12G C13A, the “aptazyme ON/OFF ratio” value was 1.19.
In the case of U7G U8C G9A C13G, the “aptazyme ON/OFF ratio” value is reported as 1.03.
With U7C U10G C12A the “aptazyme ON/OFF ratio” value was 1.11.
For U10C C12A C13U, the “aptazyme ON/OFF ratio” value was 1.18.
For U8G G9U U10A C12A C13G, the “aptazyme ON/OFF ratio” value was 1.18.
In the case of G9U U11G C12G C13G, the “aptazyme ON/OFF ratio” value is reported as 1.36.
For U8G G9U U10A U11C, the “aptazyme ON/OFF ratio” value was 1.01.
With U7C U8A U10G U11A C12G C13U the “aptazyme ON/OFF ratio” value was 1.29.
With U7C U8G G9C U11A C12A C13U the “aptazyme ON/OFF ratio” value was 1.22.
With U7C U8G G9C U10A U11C C12A the “aptazyme ON/OFF ratio” value was 1.19.
With U8A G9C U10G C12G the “aptazyme ON/OFF ratio” value was 1.17.
In the case of U8A U10C U11C C12G C13A, the “aptazyme ON/OFF ratio” value is reported as 1.21.
With U8C G9C U10C U11C C12A C13G the “aptazyme ON/OFF ratio” value was 1.04.
For U8A G9C U10G U11C C12A C13U, the “aptazyme ON/OFF ratio” value was 1.21.
With U8A U10A U11G C12A C13U the “aptazyme ON/OFF ratio” value was 1.07.
With U7A U8G G9U U11C C12A the “aptazyme ON/OFF ratio” value was 1.23.
In the case of U7C U8A G9C U11C C12A C13U, the “aptazyme ON/OFF ratio” value is reported as 1.08.
With U7A U8G G9U U10G C12U C13A the “aptazyme ON/OFF ratio” value was 1.49.
With U7C U8C G9C U10C U11G C12A C13U the “aptazyme ON/OFF ratio” value was 1.09.
With U8A G9A U10G U11C C13U the “aptazyme ON/OFF ratio” value was 1.04.
With U7G U8C G9C U10G C12A the “aptazyme ON/OFF ratio” value was 1.13.
For U7A U8G G9A U10G U11G C12A, the “aptazyme ON/OFF ratio” value was 1.46.
With U8C G9U U11A C12G C13U the “aptazyme ON/OFF ratio” value was 1.22.
With U7A U8C G9A U10A U11A C12U C13A the “aptazyme ON/OFF ratio” value was 1.13.
In the case of U8G U10C U11C C12A C13A, the “aptazyme ON/OFF ratio” value is reported as 1.1.
For U10A C12A C13G, the “aptazyme ON/OFF ratio” value was 1.19.
For U7C U8C U10G C13A, the “aptazyme ON/OFF ratio” value was 1.13.
For U7G U10G U11G C12A, the “aptazyme ON/OFF ratio” value was 1.08.
In the case of U8A G9C U10G U11A C12G C13A, the “aptazyme ON/OFF ratio” value is reported as 1.26.
With U7A U8C G9C U10C U11C the “aptazyme ON/OFF ratio” value was 0.989.
For U8A G9A C12A C13G, the “aptazyme ON/OFF ratio” value was 1.1.
In the case of U8G G9C U10A U11C C12A C13U, the “aptazyme ON/OFF ratio” value is reported as 1.07.
With U7G U8A G9A U10A U11C C12A C13A the “aptazyme ON/OFF ratio” value was 1.15.
With U7G U8A G9A U10G U11A C12A the “aptazyme ON/OFF ratio” value was 1.12.
With U7A U8G G9U U10C U11G C12A C13A the “aptazyme ON/OFF ratio” value was 1.16.
For U7C G9C U11G C13A, the “aptazyme ON/OFF ratio” value was 1.03.
In the case of U7A U8C U10G U11C C12U C13U, the “aptazyme ON/OFF ratio” value is reported as 1.51.
In the case of U7C U8C G9A U10C C12A C13A, the “aptazyme ON/OFF ratio” value is reported as 1.52.
For U8G G9U U10G C12U, the “aptazyme ON/OFF ratio” value was 1.02.
With U7G U8A G9C U11A C13G the “aptazyme ON/OFF ratio” value was 1.02.
In the case of U7A U8A G9C U10C C12A C13U, the “aptazyme ON/OFF ratio” value is reported as 1.04.
For U7C U8G G9A U10A U11G C13U, the “aptazyme ON/OFF ratio” value was 1.27.
In the case of U7A G9U U10C U11C C13A, the “aptazyme ON/OFF ratio” value is reported as 1.01.
For U7A U8G U11G C13G, the “aptazyme ON/OFF ratio” value was 1.24.
With U7G U8C G9U U10C C12A C13G the “aptazyme ON/OFF ratio” value was 1.27.
In the case of U7G U8C G9A U10C C13U, the “aptazyme ON/OFF ratio” value is reported as 1.58.
With G9U U10A U11A C12A C13G the “aptazyme ON/OFF ratio” value was 1.29.
